According to the supplement of paper PMC10567573:

B1: PTPN9 (parent)
chain: ILFSLPPALDWDSVHVPGPHAMTI

Variants of: B1
Assay: protein stability index of a GFP-peptide fusion (GPS, HEK-293T) (PSI 1-6); higher = more stable
Conditions: c terminus: a fixed tail appended
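Note: lentivirally expressed fusions sorted by FACS into six bins by GFP to DsRed ratio, PSI derived from sequencing read proportions per bin multiplied by bin number.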

Row | Variant | protein stability index
1 | ILFSLPPALDWDSVHVPGPYAMTI [H20Y] | 3.11
2 | ILFSLPPALDWDSVHVPGPPAMTI [H20P] | 1.82
3 | ILFSLPPALDWDSVHVPGPRAMTI [H20R] | 2.12
4 | ILFSLPPALDWDSVHVPGPNAMTI [H20N] | 2.59
5 | ILFSLPPALDWDSVHVPGPIAMTI [H20I] | 2.93
6 | ILFSLPPALDWDSVHVPGPKAMTI [H20K] | 2.76
7 | ILFSLPPALDWDSVHVPGPGAMTI [H20G] | 2.69
8 | ILFSLPPALDWDSVHVPGPFAMTI [H20F] | 3.16
9 | ILFSLPPALDWDSVHVPGPEAMTI [H20E] | 1.59
10 | ILFSLPPALDWDSVHVPGPMAMTI [H20M] | 2.88
11 | ILFSLPPALDWDSVHVPGPLAMTI [H20L] | 2.79
12 | ILFSLPPALDWDSVHVPGPTAMTI [H20T] | 2.16
13 | ILFSLPPALDWDSVHVPGPDAMTI [H20D] | 2.29
14 | ILFSLPPALDWDSVHVPGPCAMTI [H20C] | 2.58
15 | ILFSLPPALDWDSVHVPGPQAMTI [H20Q] | 2.31
16 | ILFSLPPALDWDSVHVRGPHAMTI [P17R] | 2.87
17 | ILFSLPPALDWDSVHVNGPHAMTI [P17N] | 2.71
18 | ILFSLPPALDWDSVHVAGPHAMTI [P17A] | 2.78
19 | ILFSLPPALDWDSVHVSGPHAMTI [P17S] | 2.82
20 | ILFSLPPALDWDSVHVDGPHAMTI [P17D] | 2.21
21 | ILFSLPPALDWDSVHVTGPHAMTI [P17T] | 2.02
22 | ILFSLPPALDWDSVHVCGPHAMTI [P17C] | 1.49
23 | ILFSLPPALDWDSVHVIGPHAMTI [P17I] | 2.67
24 | ILFSLPPALDWDSVHVKGPHAMTI [P17K] | 2.49

Row | Variant | protein stability index
25 | ILFSLPPALDWDSVHVEGPHAMTI [P17E] | 2.47
26 | ILFSLPPALDWDSVHVQGPHAMTI [P17Q] | 2.94
27 | ILFSLPPALDWDSVHVGGPHAMTI [P17G] | 1.94
28 | ILFSLPPALDWDSVHVMGPHAMTI [P17M] | 3.11
29 | ILFSLPPALDWDSVHVFGPHAMTI [P17F] | 3.17
30 | ILFSLPPALDWDSVHVHGPHAMTI [P17H] | 1.42
31 | ILFSLPPALDWDSVHVWGPHAMTI [P17W] | 4.48
32 | ILFSLPPALDWDSVHVLGPHAMTI [P17L] | 2.79
33 | ILFSLPPALDWNSVHVPGPHAMTI [D12N] | 2.5
34 | ILFSLPPALDWASVHVPGPHAMTI [D12A] | 3.66
35 | ILFSLPPALDWWSVHVPGPHAMTI [D12W] | 2.79
36 | ILFSLPPALDWISVHVPGPHAMTI [D12I] | 4.7
37 | ILFSLPPALDWMSVHVPGPHAMTI [D12M] | 2.88
38 | ILFSLPPALDWGSVHVPGPHAMTI [D12G] | 1.97
39 | ILFSLPPALDWPSVHVPGPHAMTI [D12P] | 4.93
40 | ILFSLPPALDWSSVHVPGPHAMTI [D12S] | 3.29
41 | ILFSLPPALDWQSVHVPGPHAMTI [D12Q] | 1.88
42 | ILFSLPPALDWHSVHVPGPHAMTI [D12H] | 2.07
43 | ILFSLPPALDWCSVHVPGPHAMTI [D12C] | 2.75
44 | ILFSLPPALDWTSVHVPGPHAMTI [D12T] | 2.37
45 | ILFSLPPALDWDSVHVPGPHAHTI [M22H] | 1.24
46 | ILFSLPPALDWDSVHVPGPHAQTI [M22Q] | 2.04
47 | ILFSLPPALDWDSVHVPGPHAPTI [M22P] | 1.77
48 | ILFSLPPALDWDSVHVPGPHAETI [M22E] | 2.55

Row | Variant | protein stability index
49 | ILFSLPPALDWDSVHVPGPHAITI [M22I] | 2.93
50 | ILFSLPPALDWDSVHVPGPHAWTI [M22W] | 3.35
51 | ILFSLPPALDWDSVHVPGPHAKTI [M22K] | 1.39
52 | ILFSLPPALDWDSVHVPGPHATTI [M22T] | 1.75
53 | ILFSLPPALDWDSVHVPGPHAVTI [M22V] | 2.64
54 | ILFSLPPALDWDSVHVPGPHAATI [M22A] | 2.35
55 | ILFSLPPALDWDSVHVPGPHAFTI [M22F] | 1.73
56 | ILFSLPPALDWDSVHVPGPHARTI [M22R] | 1.86
57 | ILFSLPPALDWDSVHVPGPHADTI [M22D] | 1.91
58 | ILFSLPPALDWDSVHVPGPHANTI [M22N] | 1.39
59 | ILFSLPPALDWDSVHVPGPHASTI [M22S] | 1.82
60 | ILFSLPPALDWDSVHVPGPHAGTI [M22G] | 1.67
61 | ILFSLPPALDWDSVHVPGPHALTI [M22L] | 2.77
62 | ILFSLPPALDWDSVHAPGPHAMTI [V16A] | 1.93
63 | ILFSLPPALDWDSVHKPGPHAMTI [V16K] | 2.54
64 | ILFSLPPALDWDSVHSPGPHAMTI [V16S] | 3.71
65 | ILFSLPPALDWDSVHEPGPHAMTI [V16E] | 1.38
66 | ILFSLPPALDWDSVHMPGPHAMTI [V16M] | 3.21
67 | ILFSLPPALDWDSVHTPGPHAMTI [V16T] | 3.33
68 | ILFSLPPALDWDSVHHPGPHAMTI [V16H] | 2.2
69 | ILFSLPPALDWDSVHDPGPHAMTI [V16D] | 2.27
70 | ILFSLPPALDWDSVHWPGPHAMTI [V16W] | 2.95
71 | ILFSLPPALDWDSVHRPGPHAMTI [V16R] | 2.68
72 | ILFSLPPALDWDSVHGPGPHAMTI [V16G] | 1.99

Row | Variant | protein stability index
73 | ILFSLPPALDWDSVHCPGPHAMTI [V16C] | 3.24
74 | ILFSLPPALDWDSVHNPGPHAMTI [V16N] | 1.74
75 | ILFSLPPALDWDSVHIPGPHAMTI [V16I] | 3.19
76 | ILFSLPPALDWDSVHLPGPHAMTI [V16L] | 2.68
77 | ILFSLPPALDWDSVHFPGPHAMTI [V16F] | 2.42
78 | ILFSLPPALDWDSVHQPGPHAMTI [V16Q] | 1.81
79 | ILFSLPPALDWDSVFVPGPHAMTI [H15F] | 2.99
80 | ILFSLPPALDWDSVRVPGPHAMTI [H15R] | 1.44
81 | ILFSLPPALDWDSVKVPGPHAMTI [H15K] | 2.48
82 | ILFSLPPALDWDSVLVPGPHAMTI [H15L] | 4.13
83 | ILFSLPPALDWDSVSVPGPHAMTI [H15S] | 1.85
84 | ILFSLPPALDWDSVPVPGPHAMTI [H15P] | 3.2
85 | ILFSLPPALDWDSVGVPGPHAMTI [H15G] | 2.83
86 | ILFSLPPALDWDSVTVPGPHAMTI [H15T] | 2.94
87 | ILFSLPPALDWDSVQVPGPHAMTI [H15Q] | 1.81
88 | ILFSLPPALDWDSVDVPGPHAMTI [H15D] | 2.08
89 | ILFSLPPALDWDSVEVPGPHAMTI [H15E] | 2
90 | ILFSLPPALDWDSVAVPGPHAMTI [H15A] | 3.31
91 | ILFSLPPALDWDSVVVPGPHAMTI [H15V] | 3.57
92 | ILFSLPPALDWDSVCVPGPHAMTI [H15C] | 2.36
93 | ILFSLPPALDWDSVYVPGPHAMTI [H15Y] | 3.15
94 | ILFSLPPALDWDSVIVPGPHAMTI [H15I] | 2.88
